This passage reports Kd and EC50 results from patent publication US20180057604A1 (Genentech, published 2018).

Like-named read-outs stand apart in the source and are kept apart here.

The target in assay [1] is T1, human TfR extracellular domain with N-terminal His tag (human, UniProt P02786 89-760).
T1 construct: Biotinylated in some assays; also called huTfR; HuTfR
Put plainly: SPR, IgG.
Description: (§1) Antibody affinities were measured using surface plasmon resonance (“SPR”) (Biacore™, GE Healthcare). Anti-His antibody (Qiagen) was coupled onto four different flow cells of a BIACORE™ CM5 sensor chip (Biacore, Inc., Piscataway, N.J.) at between 6000 and 8000 RU. Immobilization was achieved by random coupling through amino groups using a protocol provided by the manufacturer. 10×HBS-P (Biacore, Inc., Piscataway, N.J.) was diluted in water and served as the dilution and running buffer. Purified human or cyno TfR was captured, followed by a 3-fold dilution series of IgG or Fab that was injected at a flow rate of 30 ml/min using the single cycle kinetics method. Affinity constants were determined using a simple 1:1 Langmuir binding model or using a steady state model when kₒₙ or koff was beyond the detection limit. The equilibrium dissociation constant (KD) was calculated as the ratio of association rate constant (kₒₙ) and dissociation rate constant (koff).

Assay [2] concerns the target T2, cyno TfR extracellular domain (analogous construct to human TfR ecd) (cynomolgus monkey, UniProt Q5RDH6 87-760 (Pongo abelii entry)).
T2 construct: also called cynoTfR ecd
T2 chain: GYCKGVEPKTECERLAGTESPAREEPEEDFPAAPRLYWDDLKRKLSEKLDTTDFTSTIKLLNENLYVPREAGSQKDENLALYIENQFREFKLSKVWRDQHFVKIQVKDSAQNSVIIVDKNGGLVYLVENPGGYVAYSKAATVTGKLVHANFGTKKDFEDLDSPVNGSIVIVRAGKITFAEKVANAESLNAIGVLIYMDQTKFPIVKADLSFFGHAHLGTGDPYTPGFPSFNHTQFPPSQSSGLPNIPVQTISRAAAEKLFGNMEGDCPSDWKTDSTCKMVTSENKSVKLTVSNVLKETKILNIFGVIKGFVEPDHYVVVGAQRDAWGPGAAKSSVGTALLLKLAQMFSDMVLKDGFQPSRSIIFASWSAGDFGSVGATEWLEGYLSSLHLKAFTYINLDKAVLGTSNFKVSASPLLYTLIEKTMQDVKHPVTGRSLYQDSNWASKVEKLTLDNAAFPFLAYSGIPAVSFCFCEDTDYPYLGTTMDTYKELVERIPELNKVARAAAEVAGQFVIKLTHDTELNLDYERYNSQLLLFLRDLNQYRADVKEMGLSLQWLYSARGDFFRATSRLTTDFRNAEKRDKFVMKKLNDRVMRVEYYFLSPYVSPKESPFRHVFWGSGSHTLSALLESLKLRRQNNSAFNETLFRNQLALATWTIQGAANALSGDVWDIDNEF
Put plainly: SPR, IgG. A general note: Surface plasmon resonance follows binding to a sensor surface in real time, without labels.
Description: as §1

The target of assay [3] is T1, human TfR extracellular domain with …. Put plainly: SPR, IgG. This is another data set of the same source.
For assay [4], the target named is T2, cyno TfR extracellular domain …. Put plainly: SPR, IgG.
Assay [5] concerns the target T1, human TfR extracellular domain with …. As to the kind of experiment: SPR, IgG. This is another data set of the same source.
Description: as §1
(§2) In both cases, the SPR experiments were performed as described above.
In assay [6] the target is T2, cyno TfR extracellular domain …. As to the kind of experiment: SPR, IgG.
Description: as §1, §2
The target of assay [7] is T1, human TfR extracellular domain with …. Put plainly: ELISA, IgG. In general terms: An ELISA detects its analyte on a solid surface through an enzyme-linked reagent.
Description: (§3) Affinity variants were generated by making individual alanine substitutions in CDR-L3 or CDR-H3 using standard techniques. These variants were screened as IgG by ELISA and SPR to identify positions important for binding to human and cyno TfR; the monovalent affinity of selected variants as Fab was also determined. […] Plates were washed with PBS/0.05% Tween 20 and blocked using Superblock blocking buffer in PBS (Thermo Scientific, Hudson, N.H.). Supernatants containing expressed IgG were diluted serially 1:5 and added to the plate for 1 h. […] Plates were washed with PBS/0.05% Tween 20 and 1:1000 diluted HRP-Goat-anti kappa (Southern Biotech) was added the plate and incubated for 1 h at room temperature. Plates were washed with PBS/0.05% Tween 20 and detected using TMB substrate (BioFX Laboratories, Owings Mills).
Assay [8] addresses T2, cyno TfR extracellular domain …. As to the kind of experiment: ELISA, IgG.
Description: as §3

T1 sequence (P02786 89-760 G142S): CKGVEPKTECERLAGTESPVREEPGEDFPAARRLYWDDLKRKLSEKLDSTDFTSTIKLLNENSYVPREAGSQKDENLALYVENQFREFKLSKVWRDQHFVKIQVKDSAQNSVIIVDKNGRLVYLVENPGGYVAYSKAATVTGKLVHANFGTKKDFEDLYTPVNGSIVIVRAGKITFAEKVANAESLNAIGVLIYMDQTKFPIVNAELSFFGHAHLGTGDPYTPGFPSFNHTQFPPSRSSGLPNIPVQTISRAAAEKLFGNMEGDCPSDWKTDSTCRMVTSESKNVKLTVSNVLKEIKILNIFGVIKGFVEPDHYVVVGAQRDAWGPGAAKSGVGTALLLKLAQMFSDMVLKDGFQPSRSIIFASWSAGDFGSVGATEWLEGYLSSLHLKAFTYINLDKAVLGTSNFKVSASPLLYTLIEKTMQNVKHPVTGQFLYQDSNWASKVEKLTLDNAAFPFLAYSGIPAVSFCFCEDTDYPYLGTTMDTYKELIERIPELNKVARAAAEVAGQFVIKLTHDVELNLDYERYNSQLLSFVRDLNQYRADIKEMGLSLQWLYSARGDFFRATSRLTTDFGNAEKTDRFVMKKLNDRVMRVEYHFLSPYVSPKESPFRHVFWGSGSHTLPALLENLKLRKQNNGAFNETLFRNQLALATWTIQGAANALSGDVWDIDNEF

B1: 16F6 (antibody, V domains shown)
VH: DVQLQESGPGLVKPSQSLSLTCTVTGNSITSEYAWNWIRQFPGNKLEWMGYISYSGTTSYNPSLKSRISITRDTSKNQLFLQLNSVTTEDTATYFCARYGYGNPATRYFDVWGAGTTVTVSS
VL: DVQITQSPSYLTASPGETITINCRASKSISKYLAWYQEKPGKTNKLLIYSGSTLQSGIPSRFSGSGSGTDFTLTISNLEPEDFAMYYCQQHNEYPWTFGGGTKLEIK
notes: Mouse hybridoma antibody; also called clone 16F6
Take B1: the dissociation constant Kd in assay [1] amounted to 2.07 nM; in assay [2], 7.45 nM; in assay [3], 2.07 nM; in assay [4], 7.45 nM.

B2: 13D4 (antibody, V domains shown)
VH: QVQLQQSGAELMKPGASVKISCKAAGYTFSNYWIEWVKQRPGHGLEWIGEILPGSGSTKYNEKFKGKATFTADTSSNTAYMQLSSLTSEDSAVYYCARRGGYGYDGEFAYWGQGTLVTVSA
VL: DIQMTQTTSSLSASLGDRVTINCRAGQDITNYLNWFQQKPDGTVKLLIYYTSRLHSGVPSRFSGSGSGTDYSLTITNLEQEDIATYFCQQANTLPYTFGGGTKLEIK
notes: Mouse hybridoma antibody; also called clone 13D4
Consider B2, for which the figures for the Kd in assay [1] and in assay [2] were 9.5 nM and 8.47 nM, respectively.

B3: 1B12 (antibody, V domains shown)
VH: EVKLVESGGGLVQPGGFLKLSCATSGFTFSDYYMYWVRQTPEKRLEWVASISNGGDNTYYPDTVKGRFTISRDNAKNTLYLQMSRLKSEDTAMYYCARQGALYDGYYRGAMDYWGQGTSVTVSS
VL: QIVLTQSPAIMSASLGGRVTMTCTTSSSVPSSYFHWYQQKPGSSPKLWIYSTSNLASGVPARFSGSGSGTSYSLTISSMEAEDAATYYCHQYHRSPFTFGSGTKLEIK
notes: Mouse hybridoma antibody; also called clone 1B12
For B3, the Kd is 2.03 nM in assay [1] and 43.4 nM in assay [2].

B4: 7G7 (antibody, V domains shown)
VH: QVQLQQPGSELVRPGASVKLSCKASGYTFTSYWMHWVKQRHGQGLEWIGNIYPGSGSTKYDERFKSKGTLTVDTSSSTAYMHLSSLTSEDSAVYYCTRGGYDSRAWFAYWGQGTLVTVSA
VL: DIVLTQSPASLAVSLGQRATISCRARQSVSTSSYSFMHWYRQKAGQPPKLLIKYASIQESGVPARFSGSGSGTDFTLNILPVEEEDTATYYCQHTWEIPFTFGSGTKLEIK
notes: Mouse hybridoma antibody; also called clone 7G7
Take B4: the results for the equilibrium dissociation constant (Kd) in assay [1] and in assay [2] were 45.7 nM and 262 nM, respectively.

B5: 7A4 (antibody, V domains shown)
VH: QVQLQQSGPELVRPGVSVKISCKGSGYTFTDYAMHWVKQSHAKSLEWIGGISTYFGRTNYNQKFKGRATMTVDKSSSTAYMELARLTSEDSALYYCARGLSGNYVMDYWGQGTSVTVSS
VL: DIVLTQSPASLAVSLGQRATISCRASESVDDYGNSFMHWYQQKPGQPPKLLIYRASNLESGIPARFSGSGSRTDFTLTINPVEADDVATYYCQQSNEAPPTFGGGTKLEIR
notes: also called clone 7A4
As for B5, the dissociation constant Kd in assay [1] turned out to be 0.206 nM; in assay [2], 0.627 nM; in assay [5] it was 0.206 nM; in assay [6] it was 0.627 nM.

B6: 10D11 (antibody, V domains shown)
VH: QVQLQQSGPELVRPGVAVKISCKGSGYKFIDYGMHWVKQSHTKSLQWIGVISPYSGKTNYSQKFKGKATMTVDKSSSTAYMELARLTSEDSAIYYCARGLSGNFVMDFWGQGTSVTVSS
VL: DIVLTQSPASLAVSLGQRATISCRASESVDSYGPSFMHWYQQKPGQPPKLLIYRASNLESGIPARFSGSGSRTDFTLTINPVEADDVATYYCQHSNEDPPTFGGGTRLEIK
notes: Mouse hybridoma antibody; also called clone 10D11
Take B6: the dissociation constant Kd in assay [1] was found to be 2.08 nM; in assay [2], 89.9 nM.

B7: 8A2 (antibody, V domains shown)
VH: QVQLQQSGPELVRPGVSVKISCKGSGYTFTDYGMHWVKQSHAKSLEWIGVISPYSGRTNYNQNFKGKATMTVDKSSSTAYLELARLTSEDSAIYYCARGLSGNYVVDYWGQGTSVTVSS
VL: DIVLTQSPASLAVSLGQRATISCRASESVDSYGNSFMHWYQQKPGQPPKLLIYRASNLESGIPARFSGSGSRTDFTLTINPVEADDVATYYCQQSNEGPPTFGGGTKLEIK
notes: Mouse hybridoma antibody; also called clone 8A2
For the molecule B7, the Kd in assay [1] was found to be 0.179 nM; in assay [2] it was 0.904 nM.

B8: 7A4 HC/8A2 LC (antibody, V domains shown)
VH: QVQLQQSGPELVRPGVSVKISCKGSGYTFTDYAMHWVKQSHAKSLEWIGGISTYFGRTNYNQKFKGRATMTVDKSSSTAYMELARLTSEDSALYYCARGLSGNYVMDYWGQGTSVTVSS
VL: DIVLTQSPASLAVSLGQRATISCRASESVDSYGNSFMHWYQQKPGQPPKLLIYRASNLESGIPARFSGSGSRTDFTLTINPVEADDVATYYCQQSNEGPPTFGGGTKLEIK
notes: chimeric IgG; also called ch7A4/8A2
Consider B8, for which the Kd came out at 0.112 nM in assay [1], 0.925 nM in assay [2], 0.112 nM in assay [5] and 0.925 nM in assay [6].

B9: H90A (antibody, V domains shown)
VH: EVQLVQSGAEVKKPGASVKVSCKASGYTFTSYWMHWVRQAPGQRLEWIGEINPTNGRTNYIEKFKSRATLTVDKSASTAYMELSSLRSEDTAVYYCARGTRAYHYWGQGTMVTVSS
VL: DIQMTQSPSSLSASVGDRVTITCRASDNLYSNLAWYQQKPGKSPKLLVYDATNLADGVPSRFSGSGSGTDYTLTISSLQPEDFATYYCQAFWGTPLTFGQGTKVEIK
notes: also called 15G11.v5 H90A (CDR-L3) IgG
In the case of B9, the values for the EC50 in assay [7] and in assay [8] were 0.013 µg/mL and 0.024 µg/mL, respectively.

B10: L96A (antibody, V domains shown)
VH: EVQLVQSGAEVKKPGASVKVSCKASGYTFTSYWMHWVRQAPGQRLEWIGEINPTNGRTNYIEKFKSRATLTVDKSASTAYMELSSLRSEDTAVYYCARGTRAYHYWGQGTMVTVSS
VL: DIQMTQSPSSLSASVGDRVTITCRASDNLYSNLAWYQQKPGKSPKLLVYDATNLADGVPSRFSGSGSGTDYTLTISSLQPEDFATYYCQHFWGTPATFGQGTKVEIK
notes: also called 15G11.v5 L96A (CDR-L3) IgG
Consider B10, for which the concentration for a half-maximal effect (EC50) in assay [7] came to 0.0099 µg/mL; in assay [8] it was 0.018 µg/mL.

B11: H101A (antibody, V domains shown)
VH: EVQLVQSGAEVKKPGASVKVSCKASGYTFTSYWMHWVRQAPGQRLEWIGEINPTNGRTNYIEKFKSRATLTVDKSASTAYMELSSLRSEDTAVYYCARGTRAYAYWGQGTMVTVSS
VL: DIQMTQSPSSLSASVGDRVTITCRASDNLYSNLAWYQQKPGKSPKLLVYDATNLADGVPSRFSGSGSGTDYTLTISSLQPEDFATYYCQHFWGTPLTFGQGTKVEIK
notes: also called 15G11.v5 H101A (CDR-H3) IgG; copies: 2 + 2
On to B11, for which the results for the EC50 in assay [7] and in assay [8] were 0.0142 µg/mL and 0.0216 µg/mL, respectively.

B12: T94A (antibody, V domains shown)
VH: EVQLVQSGAEVKKPGASVKVSCKASGYTFTSYWMHWVRQAPGQRLEWIGEINPTNGRTNYIEKFKSRATLTVDKSASTAYMELSSLRSEDTAVYYCARGTRAYHYWGQGTMVTVSS
VL: DIQMTQSPSSLSASVGDRVTITCRASDNLYSNLAWYQQKPGKSPKLLVYDATNLADGVPSRFSGSGSGTDYTLTISSLQPEDFATYYCQHFWGAPLTFGQGTKVEIK
notes: also called 15G11.v5 T94A (CDR-L3) IgG
As to B12, the values for the EC50 in assay [7] and in assay [8] were 0.0168 µg/mL and 0.0293 µg/mL, respectively.

B13: T97A (antibody, V domains shown)
VH: EVQLVQSGAEVKKPGASVKVSCKASGYTFTSYWMHWVRQAPGQRLEWIGEINPTNGRTNYIEKFKSRATLTVDKSASTAYMELSSLRSEDTAVYYCARGTRAYHYWGQGTMVTVSS
VL: DIQMTQSPSSLSASVGDRVTITCRASDNLYSNLAWYQQKPGKSPKLLVYDATNLADGVPSRFSGSGSGTDYTLTISSLQPEDFATYYCQHFWGTPLAFGQGTKVEIK
notes: also called 15G11.v5 T97A (CDR-L3) IgG
For the molecule B13, the concentration for a half-maximal effect (EC50) worked out at 0.0134 µg/mL in assay [7] and 0.0157 µg/mL in assay [8].

B14: 15G11 (antibody, V domains shown)
VH: QVQLQQPGAELVKPGASVKLSCKASGYTFTSYWMHWVKQRPGQGLEWIGEINPTNGRTNYIEKFKSKATLTVDKSSSTAYMQLSSLTSEDSAVYYCARGTRAYHYWGQGTSVTVSS
VL: DIQMTQSPASLSVSVGETVTITCRASDNLYSNLAWYQQKQGKSPQLLVYDATNLADGVPSRFSGSGSGTQYSLKINSLQSEDFGTYYCQHFWGTPLTFGAGTKLELK
notes: Mouse hybridoma antibody; also called clone 15G11
Turning to B14, the Kd turned out to be 0.992 nM in assay [1], 2.6 nM in assay [2], 0.992 nM in assay [5] and 2.6 nM in assay [6].

B15: 16G4 (antibody, V domains shown)
VH: QVQLQQPGAELVKPGASVKLSCKASGYTFTSYWMHWVKQRPGQGLEWIGEINPSNGRTNYNETFKSKATLTVDKSSSTAYMQLSSLTSEDSAVYYCARGTRAYHYWGQGTSVTVSS
VL: DIQMTQSPASLSVSVGETVTITCRASDNIYSNLAWYQQKQGKSPQLLVYAVTNLADGVPSRFSGSGSGTQYSLKINSLQSEDFGSYYCQHFWGTPLTFGAGTKLELK
notes: Mouse hybridoma antibody; also called clone 16G4
In the case of B15, the values for the equilibrium dissociation constant (Kd) in assay [1] and in assay [2] were 3.4 nM and 22.4 nM, respectively.

Usually Kd stands for a measure of binding affinity in units of concentration. Usually EC50 stands for the concentration that produces a half-maximal response. A low value points to an effect from little substance.
